Data as given in the supplement of paper PMC7877785.
± gives the uncertainty stated by the source.

Test: self-splicing fitness, log relative to wild type (ln ratio); higher = more splicing; Tetrahymena group I intron in knt gene, E. coli kanamycin selection, DiMSum; sequences stand for … in CUCUCU…GGAGGGAAAAGUUAUCAGGCAUGCACCUGGUAGCUAGUCUUUAAACCAAUAGAUUGCAUCGGUUUAAAAGGCAAGACCGUCAAAUUGCGGGAAAGGGGUCAACAGCCGUUCAGUACCAAGUCUCAGGGGAAACUUUGAGAUGGCCUUGCAAAGGGUAUGGUAAUAAGCUGACGGACAUGGUCCUAACCACGCAGCCAAGUCCUAAGUCAACAGAUCUUCUGUUGAUAUGGAUGCAGUUCACAGACUAAAUGUCGGUCGGGGAAGAUGUAUUCUUCUCAUAAGAUAUAGUCGGACCUCUCCUUAAUGGGAGCUAGCGGAUGAAGUGAUGCAACACUGGAGCCGCUGGGAACUAAUUUGUAUGCGAAAGUAUAUUGAUUAGUUUUGGAGUACUCGUGGUCG
Summary of the method: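 Library with all eight P1ex-region intron nucleotides randomised, intron inside the knt kanamycin-resistance gene on pET-22b(+), in E. coli BL21(DE3). Cells grew overnight at 37°C or 30°C on LB agar with or without 25 μg/mL kanamycin (plus 100 μg/mL carbenicillin, 50 μM IPTG, 0.2% rhamnose), in six replicate transformations. Pooled colonies were amplicon-sequenced on Illumina HiSeq 2500. DiMSum fitness is the error-weighted combination of wild-type-normalised replicate fold changes, kanamycin versus none.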

Sequence	self-splicing fitness (ln) (30 °C)	self-splicing fitness (ln) (37 °C)
UGUCAGCAAUAUUACGGUCU	-0.529 ± 0.063	0.201 ± 0.083
AUGUAGCAAUAUUACGGUGU	-3.04 ± 0.16	-0.843 ± 0.1
AGCCAGCAAUAUUACGAGUU	-1.84 ± 0.086	-0.293 ± 0.081
AACAAGCAAUAUUACGCUCU	-0.638 ± 0.075	0.0475 ± 0.089
GAGAAGCAAUAUUACGGAAU	-3.69 ± 0.25	-1.55 ± 0.2
UCUUAGCAAUAUUACGAUGU	-1.95 ± 0.11	-0.623 ± 0.13
UCAGAGCAAUAUUACGCAAA	-1.85 ± 0.23	-2.03 ± 0.46
GUUAAGCAAUAUUACGGCAC	-0.637 ± 0.12	0.0416 ± 0.15
UCCUAGCAAUAUUACGCUCA		-2.48 ± 0.42
GCGAAGCAAUAUUACGUAUU	-3.7 ± 0.15	-0.392 ± 0.093
CUAUAGCAAUAUUACGUUCU	-3.41 ± 0.35	-3.02 ± 0.47
GGGCAGCAAUAUUACGAAAG	-3.58 ± 0.28	-2.92 ± 0.35
UCACAGCAAUAUUACGCCAC		-3.66 ± 0.3
CAAAAGCAAUAUUACGUUGU	-3.3 ± 0.11	-2.4 ± 0.14
GCUCAGCAAUAUUACGAGUG	-1.21 ± 0.063	-0.148 ± 0.092
AAAGAGCAAUAUUACGUCAU	-2.38 ± 0.37	-2.45 ± 0.35
AUAUAGCAAUAUUACGAUGC	-2.89 ± 0.27	-0.335 ± 0.22
GUCAAGCAAUAUUACGUUGG	-4.53 ± 0.31	-3.51 ± 0.3
UUAAAGCAAUAUUACGGACA	-0.00448 ± 0.072	0.068 ± 0.11
CCCGAGCAAUAUUACGUAAU	-4.75 ± 0.45	-2.63 ± 0.32

Sequence	self-splicing fitness (ln) (30 °C)	self-splicing fitness (ln) (37 °C)
AAUCAGCAAUAUUACGGGUU	-2.48 ± 0.12	-2.02 ± 0.13
CUCCAGCAAUAUUACGAGUU	-2.87 ± 0.17	-2.66 ± 0.29
UGUGAGCAAUAUUACGGUAC	-3.38 ± 0.28	-2.3 ± 0.29
ACGAAGCAAUAUUACGACAC	-2.4 ± 0.13	-0.952 ± 0.14
UGAUAGCAAUAUUACGCUAU	-3.98 ± 0.47	-2.04 ± 0.27
UUGUAGCAAUAUUACGGGAG		-2.84 ± 0.4
AAGGAGCAAUAUUACGCUAC	-2.75 ± 0.43	
AACGAGCAAUAUUACGUAGU	-3.97 ± 0.15	-2.24 ± 0.15
UACGAGCAAUAUUACGAUGU	-3.35 ± 0.32	-2.46 ± 0.34
UAGCAGCAAUAUUACGUAUU	-3.99 ± 0.26	-1.54 ± 0.19
CUCUAGCAAUAUUACGUUCU	-3.1 ± 0.15	-3.47 ± 0.22
GCUCAGCAAUAUUACGUACU	-0.953 ± 0.087	-0.636 ± 0.086
CCUAAGCAAUAUUACGCCGA	-0.993 ± 0.49	-1.98 ± 0.37
CCGCAGCAAUAUUACGGGGA	-3.59 ± 0.15	-2.35 ± 0.15
UACCAGCAAUAUUACGAUCC	-1.4 ± 0.15	-1.84 ± 0.26
GUGGAGCAAUAUUACGUAUC	-2.13 ± 0.2	-0.331 ± 0.17
GGCUAGCAAUAUUACGACAU	-0.413 ± 0.013	0.0789 ± 0.033
GUAUAGCAAUAUUACGCAGC	-2.32 ± 0.37	-1.25 ± 0.33
GAGGAGCAAUAUUACGUGCC	-3.24 ± 0.26	-2.41 ± 0.28
